Experimental data reported in US8815802 (Novo Nordisk, dated 2014).
Numbering of substitutions follows the chain as printed. Numbered stars: 1 amine (or outer) side, 2 acyl side, 3 side chain; on linkers, the order of the positions; unused ones are H or OH. Square brackets hold non-standard residues; d marks the D form. Side chains are listed from the residue outwards. Ends that are not written are not given here. * marks the point of attachment. X1 = 4‑(16-(1H-tetrazol-5-yl)hexadecanoylsulfamoyl)butanoyl, O=C(CCCCCCCCCCCCCCCc1nn[nH]n1)NS(=O)(=O)CCCC(=O)*; C18 diacid = O=C(O)CCCCCCCCCCCCCCCCC(=O)*; C16 diacid = O=C(O)CCCCCCCCCCCCCCC(=O)*; γGlu = O=C(O)[C@H](CCC(=O)[*:2])N[*:1]; NMeA = CN[C@@H](C)C(=O)O; AEEA = NCCOCCOCC(=O)O

B1: N^ε26-2,3-bis[[2-[2-[2-[[2-[2-[2-[[(4S)-4-carboxy-4-(13-carboxytridecanoylamino)butanoyl]amino]ethoxy]ethoxy]acetyl]amino]ethoxy]ethoxy]acetyl]amino]propanoyl-[ … (peptide)
peptide: HXEGTFTSDVSSYLEGQAAKEFIAHLVQGRG
modifications: not fully specified; Aib8; Lys26 N-epsilon-acylated (branched side chain as in name); GLP-1(7-37) numbering
B2: [Aib^8,Glu^30,His^31,Gln^34,Lys^36] GLP-1(7-37)yl-Glu^38-peptide amide (peptide)
peptide: HXEGTFTSDVSSYLEGQAAKEFIEHLVQGKGE
HELM: PEPTIDE1{H.[Aib].E.G.T.F.T.S.D.V.S.S.Y.L.E.G.Q.A.A.K.E.F.I.E.H.L.V.Q.G.K.G.E.[am]}$$$$V2.0; N-terminus assumed
SMILES: CC[C@H](C)[C@H](NC(=O)[C@H](Cc1ccccc1)NC(=O)[C@H](CCC(=O)O)NC(=O)[C@H](CCCCN)NC(=O)[C@H](C)NC(=O)[C@H](C)NC(=O)[C@H](CCC(N)=O)NC(=O)CNC(=O)[C@H](CCC(=O)O)NC(=O)[C@H](CC(C)C)NC(=O)[C@H](Cc1ccc(O)cc1)NC(=O)[C@H](CO)NC(=O)[C@H](CO)NC(=O)[C@@H](NC(=O)[C@H](CC(=O)O)NC(=O)[C@H](CO)NC(=O)[C@@H](NC(=O)[C@H](Cc1ccccc1)NC(=O)[C@@H](NC(=O)CNC(=O)[C@H](CCC(=O)O)NC(=O)C(C)(C)NC(=O)[C@@H](N)Cc1c[nH]cn1)[C@@H](C)O)[C@@H](C)O)C(C)C)C(=O)N[C@@H](CCC(=O)O)C(=O)N[C@@H](Cc1c[nH]cn1)C(=O)N[C@@H](CC(C)C)C(=O)N[C@H](C(=O)N[C@@H](CCC(N)=O)C(=O)NCC(=O)N[C@@H](CCCCN)C(=O)NCC(=O)N[C@@H](CCC(=O)O)C(N)=O)C(C)C
notes: unacylated analogue; also called (8Aib, 30E, 31H, 34Q, 36K, 38E)
B3: N^α([Aib^8,His^31,Gln^34]-GLP-1-(7-37)-peptidyl)-Lysine (peptide)
peptide: B2 peptide with E24A, K30R, E32K
modifications: Aib8 (GLP-1(7-37) numbering)
notes: unacylated analogue; also called (8Aib, 31H, 34Q, 38K)

Assays:
human GLP-1 receptor [1] = target: T1, human GLP-1 receptor (human, UniProt P43220 24-463); experiment: SPA, displacement of 125I-GLP-1(7-36)NH2 from hGLP-1R membranes, 2.0% HSA
T1 construct: whole, on cells; Used as purified plasma membranes of the transfected hamster cell line, not as intact cells; also called hGLP-1
Protocol: (§1) 25 ul (micro liter) of test compounds were added to Optiplate. HSA ("high albumin" experiment containing 2% HSA), or buffer ("low albumin" experiment containing 0.005% HSA), was added (50 ul). 5-10 ug protein/sample was added (50 ul) corresponding to 0.1-0.2 mg protein/ml (to be preferably optimised for each membrane preparation). SPA-particles (Wheatgerm agglutinin SPA beads, Perkin Elmer, #RPNQ0001) were added in an amount of 0.5 mg/well (50 ul). […] The plates were sealed with PlateSealer and incubated for 120 minutes at 30° C. while shaking. The plates were centrifuged (1500 rpm, 10 min) and counted in Topcounter.

human GLP-1 receptor [2] = target: T1, human GLP-1 receptor; experiment: SPA, displacement of 125I-GLP-1(7-36)NH2 from hGLP-1R membranes, 0.005% HSA
Protocol: as §1

Binder	IC50 (human GLP-1 receptor [1])	IC50 (human GLP-1 receptor [2])
H[NMeA]EGTFTSDVSSYLEGQAAK([AEEA-AEEA-γGlu-C18 diacid])EFIAHLVQGRG [N^8-methyl, …]	≤ 1000 nM	< 600 nM
HXEGTFTSDVSSYLEGQAAKEFIAHLVQGRG (Aib8; Lys26 N-epsilon-acylated (side chain as in name); GLP-1(7-37) numbering)	≤ 1000 nM	< 600 nM
B1	≤ 1000 nM	< 600 nM
HAEGTFTSDVSSYLEGQAAK(X1)EFIAHLVQGRG [N^ε26-4-[16-(1H-tetrazol-5-yl)hexadecanoylsulfamoyl]butanoyl-[His^31,Gln^34]-GLP-1-(7-37)-peptide]	≤ 1000 nM	< 600 nM
HAEGTFTSDVSSYLEGQAAK([AEEA-AEEA-γGlu-C16 diacid])EFIAHLVQGRG	≤ 1000 nM	< 600 nM
B2	≤ 1000 nM	< 600 nM
B3	≤ 1000 nM	< 600 nM
